{"source": "patent US20230365642A1", "about": "(MEDICENNA THERAPEUTICS, published 2023)", "binders": {"B1": {"name": "Fc4-MDNA413 (1:2) (Fc fusion)", "chain": "APPCPSCPAPEFLGGPSVFLFPPKPKDTLMISRTPEVTCVVVDVSQEDPEVQFNWYVDGVEVHNAKTKPREEQFNSTYRVVSVLTVLHQDWLNGKEYKCKVSNKGLPSSIEKTISKAKGQPREPQVYTLPPSQEEMTKNQVSLTCLVKGFYPSDIAVEWESNGQPENNYKTTPPVLDSDGSFFLYSRLTVDKSRWQEGNVFSCSVMHEALHNHYTQKSLSLSPGKGGGSGSPGPVPPSTAVRALIEELINITQNQKAPLCNGSMVWSINRTAGMYCAALESLINVSGCSAIEKTQDMLSGFCPHKVSAGQFSSLHVRSSKIEVAQFVKDLLFHLRTLFREGQFN", "notes": "also called Fc4-MDNA413^R39/Q111 (1:2)"}}, "key": {"[1]": {"target": "T1, IL4R Type-II (IL4Rα chain with IL13Rα1), on cells (UniProt P24394 26-825; P78552 22-427, limits assumed)", "T1 sequence (looked up) 1": "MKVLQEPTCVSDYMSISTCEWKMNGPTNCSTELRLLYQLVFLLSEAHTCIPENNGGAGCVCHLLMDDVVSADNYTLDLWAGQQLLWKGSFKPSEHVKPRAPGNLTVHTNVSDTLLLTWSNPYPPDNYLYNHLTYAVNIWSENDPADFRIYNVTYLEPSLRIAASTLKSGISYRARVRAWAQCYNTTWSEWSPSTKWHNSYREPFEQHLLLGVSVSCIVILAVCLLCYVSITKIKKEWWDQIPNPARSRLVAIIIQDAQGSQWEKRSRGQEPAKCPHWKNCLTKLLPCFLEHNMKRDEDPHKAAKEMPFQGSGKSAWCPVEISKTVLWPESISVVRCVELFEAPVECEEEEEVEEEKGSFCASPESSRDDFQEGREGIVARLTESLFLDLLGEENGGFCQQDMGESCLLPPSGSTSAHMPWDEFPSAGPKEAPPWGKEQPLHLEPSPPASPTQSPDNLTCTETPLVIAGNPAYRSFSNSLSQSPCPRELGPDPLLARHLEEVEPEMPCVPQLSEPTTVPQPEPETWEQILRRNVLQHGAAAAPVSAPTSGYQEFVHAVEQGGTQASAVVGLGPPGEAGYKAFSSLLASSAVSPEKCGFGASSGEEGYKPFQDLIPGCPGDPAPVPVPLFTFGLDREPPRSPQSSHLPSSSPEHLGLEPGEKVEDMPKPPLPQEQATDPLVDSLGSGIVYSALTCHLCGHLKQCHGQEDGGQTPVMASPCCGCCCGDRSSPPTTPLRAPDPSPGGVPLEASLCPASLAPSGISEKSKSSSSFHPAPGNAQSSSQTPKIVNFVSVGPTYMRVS", "T1 sequence (looked up) 2": "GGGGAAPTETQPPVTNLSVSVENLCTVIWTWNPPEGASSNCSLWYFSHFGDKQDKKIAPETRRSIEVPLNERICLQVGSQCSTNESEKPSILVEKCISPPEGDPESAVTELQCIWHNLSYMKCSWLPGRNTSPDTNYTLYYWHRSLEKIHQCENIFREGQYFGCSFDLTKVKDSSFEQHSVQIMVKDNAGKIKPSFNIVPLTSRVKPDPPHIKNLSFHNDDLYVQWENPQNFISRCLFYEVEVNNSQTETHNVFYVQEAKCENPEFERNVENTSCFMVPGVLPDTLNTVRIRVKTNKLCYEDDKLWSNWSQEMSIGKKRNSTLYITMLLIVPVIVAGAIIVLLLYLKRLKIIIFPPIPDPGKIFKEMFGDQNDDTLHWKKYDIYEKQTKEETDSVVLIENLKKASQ", "assay": "cell-based or functional assay"}, "[2]": {"target": "T1, IL4R Type-II (IL4Rα chain with …)", "assay": "cell-based or functional assay", "remark": "listed apart in the source"}, "[3]": {"target": "T2, IL13Rα1 Protein, Mouse, Recombinant, His Tag (mouse, UniProt O09030 26-340, limits assumed)", "T2 construct": "also called mouse IL13Rα1; mIL13Rα1; not shown: His tag", "T2 sequence (looked up)": "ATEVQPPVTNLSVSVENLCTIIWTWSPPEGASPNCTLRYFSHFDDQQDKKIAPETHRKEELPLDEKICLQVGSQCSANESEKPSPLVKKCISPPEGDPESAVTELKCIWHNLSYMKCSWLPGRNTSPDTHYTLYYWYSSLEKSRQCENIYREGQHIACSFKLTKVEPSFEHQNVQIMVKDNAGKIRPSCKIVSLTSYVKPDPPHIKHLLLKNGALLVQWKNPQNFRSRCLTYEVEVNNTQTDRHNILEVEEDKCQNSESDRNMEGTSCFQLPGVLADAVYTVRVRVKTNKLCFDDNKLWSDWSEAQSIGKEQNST", "assay": "ELISA, receptor coated on plate, anti-human IgG Fc detection"}, "[4]": {"target": "T3, IL13Rα Protein, Human, Recombinant, His Tag (human IL13Rα1) (human, UniProt P78552 22-343, limits assumed)", "T3 construct": "also called hIL13Rα1; IL13Ra1; not shown: His tag", "T3 sequence (looked up)": "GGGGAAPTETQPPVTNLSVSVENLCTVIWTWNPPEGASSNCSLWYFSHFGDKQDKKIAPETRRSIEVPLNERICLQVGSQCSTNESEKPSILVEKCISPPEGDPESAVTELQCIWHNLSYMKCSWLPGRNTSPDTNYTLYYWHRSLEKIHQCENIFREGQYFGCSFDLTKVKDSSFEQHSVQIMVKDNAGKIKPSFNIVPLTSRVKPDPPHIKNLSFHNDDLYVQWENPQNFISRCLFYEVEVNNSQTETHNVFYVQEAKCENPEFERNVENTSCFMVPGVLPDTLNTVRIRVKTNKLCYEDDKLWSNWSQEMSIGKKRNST", "assay": "ELISA, receptor coated on plate, anti-human IgG Fc detection"}, "[5]": {"target": "T1, IL4R Type-II (IL4Rα chain with …)", "assay": "cell-based or functional assay", "remark": "listed apart in the source"}}}
{"binder": "B1", "values": [{"measurement": "IL4 EC50 (nM); IL-4 competitive assay, HEK-Blue IL-4/IL-13 reporter cells", "setting": "[1]", "value": 7.5, "unit": "nM"}, {"measurement": "IL 13 EC50 (nM); IL-13 competitive assay, HEK-Blue IL-4/IL-13 reporter cells", "setting": "[1]", "value": 37.8, "unit": "nM"}, {"measurement": "IL-13 Mediated M2 polarization CD206 (IC50 nM), first donor", "setting": "[2]", "value": 0.48, "unit": "nM"}, {"measurement": "IL-13 Mediated M2 polarization CD209 (IC50 nM), first donor", "setting": "[2]", "value": 1.6, "unit": "nM"}, {"measurement": "IL-13 Mediated M2 polarization CD209 (IC50 nM), second donor", "setting": "[2]", "value": 0.492, "unit": "nM"}, {"measurement": "binding result", "setting": "[3]", "value": "binds"}, {"measurement": "binding result", "setting": "[4]", "value": "binds"}, {"measurement": "IL-4 Mediated M2 polarization CD206 (IC50 nM), second donor", "setting": "[5]", "value": 2.01, "unit": "nM"}, {"measurement": "IL-4 Mediated M2 polarization CD209 (IC50 nM), first donor", "setting": "[5]", "value": 0.59, "unit": "nM"}, {"measurement": "IL-4 Mediated M2 polarization CD209 (IC50 nM), second donor", "setting": "[5]", "value": 2.3, "unit": "nM"}]}
